Measurements as given in PMC3607736, “HAD hydrolase function unveiled by substrate screening: enzymatic characterization of Arabidopsis thaliana subclass I phosphosugar phosphatase AtSgpp” (Planta, 2012).

Substrate: O=P(O)(O)OCC(O)CO
Assay: inorganic phosphate release (Ames), non-linear regression
Type: biochemical, Arabidopsis thaliana
Conditions: 20 mM Tris-HCl pH 7.0, 5 mM MgCl2, 32 °C, apparent Km, MBP fusion
Excerpt: inorganic phosphate release (Ames), non-linear regression on AtSgpp (MBP-AtSgpp, At2g38740)

B1: AtSgpp (MBP-AtSgpp, At2g38740) (Arabidopsis thaliana) (protein)
chain: MNGFSDLNPSESKPSLSQLAPLEAILFDVDGTLCDSDPIHLIAFQELLQEIGFNNGVPIDEKFFVENIAGKHNSEIALLLFPDDVSRGLKFCDEKEALYRKIVAEKIKPLDGLIKLTKWIEDRGLKRAAVTNAPKENAELMISKLGLTDFFQAVILGSECEFPKPHPGPYLKALEVLNVSKEHTLVFEDSISGIKAGVAAGMPVIGLTTGNPASLLMQAKPAFLIENYADPKLWAVLEELDNKS
notes: N-terminal MBP fusion (pMAL-c2X, Ile-Ser-Glu-Phe linker before Met1); E. coli TB1, amylose resin
For B1, the Km was “(7.3 ± 0.2) × 10^−3 M”, the Vmax was 0.498 µmol/min and the kcat was 23 ± 3 s⁻¹. It also gave a kcat/Km of 3100 M⁻¹ s⁻¹.
